Test results: patent publication US20240402174A1 (Takeda / Millennium, published 2024)

Assays:
Assay in all cases: multiplex microsphere immunoassay
GII.17/1978 VLP = target: T1, GII.17/1978 VLP (norovirus Hu/GII.17/C142/GF/1978)
T1 construct: also called Hu/GII.17/C142/GF/1978
T1 chain: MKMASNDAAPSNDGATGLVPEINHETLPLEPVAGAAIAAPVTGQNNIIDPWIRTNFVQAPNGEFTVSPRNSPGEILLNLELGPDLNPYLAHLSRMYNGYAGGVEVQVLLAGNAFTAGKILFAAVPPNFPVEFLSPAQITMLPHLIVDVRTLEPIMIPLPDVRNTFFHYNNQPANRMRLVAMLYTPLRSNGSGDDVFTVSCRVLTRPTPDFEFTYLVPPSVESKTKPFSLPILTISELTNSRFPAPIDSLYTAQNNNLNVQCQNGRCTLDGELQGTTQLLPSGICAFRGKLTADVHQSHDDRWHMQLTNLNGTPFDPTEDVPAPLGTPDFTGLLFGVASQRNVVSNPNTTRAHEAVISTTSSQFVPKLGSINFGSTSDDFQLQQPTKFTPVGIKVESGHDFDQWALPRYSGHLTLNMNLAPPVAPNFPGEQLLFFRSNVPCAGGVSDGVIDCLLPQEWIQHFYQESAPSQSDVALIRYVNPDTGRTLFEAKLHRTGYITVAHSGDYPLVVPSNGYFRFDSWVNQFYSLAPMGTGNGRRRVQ

GII.1 VLP = target: T2, GII.1 VLP (norovirus Hu/GII.1/Ascension208/2010/USA)
T2 chain: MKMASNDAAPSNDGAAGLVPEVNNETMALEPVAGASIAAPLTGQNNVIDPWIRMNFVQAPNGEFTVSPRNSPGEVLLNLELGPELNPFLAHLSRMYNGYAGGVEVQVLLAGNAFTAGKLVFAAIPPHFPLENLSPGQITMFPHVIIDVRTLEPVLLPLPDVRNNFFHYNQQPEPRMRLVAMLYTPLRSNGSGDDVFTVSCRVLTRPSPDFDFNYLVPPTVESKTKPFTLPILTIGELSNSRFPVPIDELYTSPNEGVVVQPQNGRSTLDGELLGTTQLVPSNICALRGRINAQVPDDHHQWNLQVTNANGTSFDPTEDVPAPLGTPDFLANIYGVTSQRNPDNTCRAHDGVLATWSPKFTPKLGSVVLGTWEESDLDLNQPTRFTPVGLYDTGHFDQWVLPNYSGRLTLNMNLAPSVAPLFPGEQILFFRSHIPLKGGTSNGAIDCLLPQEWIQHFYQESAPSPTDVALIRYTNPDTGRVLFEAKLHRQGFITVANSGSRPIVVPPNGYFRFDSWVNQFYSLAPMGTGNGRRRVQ

GI.4 VLP = target: T3, GI.4 VLP (norovirus Hu/GI.4/1643/2008/US)
T3 construct: also called GI.4 US
T3 chain: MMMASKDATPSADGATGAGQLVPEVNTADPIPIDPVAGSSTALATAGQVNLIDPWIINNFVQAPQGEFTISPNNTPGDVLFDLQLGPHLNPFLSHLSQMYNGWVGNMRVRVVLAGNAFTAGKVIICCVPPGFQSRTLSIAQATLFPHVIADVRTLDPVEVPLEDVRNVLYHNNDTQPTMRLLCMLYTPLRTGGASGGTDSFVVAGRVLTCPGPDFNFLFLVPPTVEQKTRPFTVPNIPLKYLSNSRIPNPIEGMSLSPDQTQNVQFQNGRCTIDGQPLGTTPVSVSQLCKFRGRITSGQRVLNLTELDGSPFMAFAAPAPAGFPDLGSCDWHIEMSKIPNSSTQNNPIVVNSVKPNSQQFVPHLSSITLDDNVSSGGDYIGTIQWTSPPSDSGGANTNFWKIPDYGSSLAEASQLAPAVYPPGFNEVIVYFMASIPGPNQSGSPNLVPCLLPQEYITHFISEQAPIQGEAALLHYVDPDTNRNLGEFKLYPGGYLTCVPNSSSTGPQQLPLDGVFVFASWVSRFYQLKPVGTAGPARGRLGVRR

B1: human mAb 1431 (antibody, V domains shown)
VH: QVQLVQSGGGLVQPGGSLRLSCAASGFAFSNHGMHWVRQAPGKGLEWLSYISGSTGAIHYANSVKGRFTISRDNARNSLDLQMNSLGDEDTAVYYCARDGPRPDGTGYAGPSNDYWGQGTLVSVSS
VL: EIVLTQSPASLSLSPGERATLSCKASRSISIYLAWYQQKPGQAPRLLIYDASYRAIGIPARFSGSGSGTDFTLTISNLEPEDFAVYYCQHRSSWPALTFGGGTKVEI
notes: also called A1431
GII.17/1978 VLP
  binding result: no binding
GII.1 VLP
  binding result: no binding

B2: human mAb 1431 (antibody, V domains shown)
VH: B1 VH
VL: B1 VL
notes: also called A1431
GI.4 VLP
  binding result: no binding
